Laboratory results published in patent US20200377579A1 (Biogen, published 2020).

Experiments:
aggregated α-synuclein [1] = molecular target: T1, aggregated α-synuclein (human, UniProt P37840 1-140); test: in vitro binding, method not stated; same EC50 in mass units
aggregated α-synuclein [2] = molecular target: T1, aggregated α-synuclein; test: in vitro binding, method not stated; estimated from binding constants

EC50 (aggregated α-synuclein [1]): ~0.0375 µg/mL
EC50 (aggregated α-synuclein [2]): ~250 pM
B1: BIIB054 (antibody, human IgG1, lambda, V domains shown)
VH: EVQLVESGGGLVEPGGSLRLSCAVSGFDFEKAWMSWVRQAPGQGLQWVARIKSTADGGTTSYAAPVEGRFIISRDDSRNMLYLQMNSLKTEDTAVYYCTSAHWGQGTLVTVSS
VL: SYELTQPPSVSVSPGQTARITCSGEALPMQFAHWYQQRPGKAPVIVVYKDSERPSGVPERFSGSSSGTTATLTITGVQAEDEADYYCQSPDSTNTYEVFGGGTKLTVLS
notes: Fully human IgG1/lambda monoclonal antibody; also called anti-α-synuclein antibody
